According to paper PMC9091730 (Journal of Advanced Research, 2021):
Where two headings read alike, the source gives them in different places.

Key:
[1] = target: GST-fusion peptide of the wild-type IQ motif of T. cinnabarinus L-VGCC (Tetranychus cinnabarinus); test: pull-down
[2] = target: GST-fusion peptide of the N-terminal (NT) motif of T. cinnabarinus L-type voltage-gated Ca2+ channel (Tetranychus cinnabarinus); test: pull-down
[3] = target: GST-fusion peptide of the PreIQ motif of T. cinnabarinus L-VGCC (Tetranychus cinnabarinus); test: pull-down
[4] = target: GST-fusion peptide of the near-end C-terminal motif (CT1) of T. cinnabarinus L-VGCC (Tetranychus cinnabarinus); test: pull-down
[5] = target: GST-fusion peptide CT1B (PreIQ and IQ) of T. cinnabarinus L-VGCC (Tetranychus cinnabarinus); test: pull-down
[6] = target: GST-fusion peptide of the wild-type IQ motif of T. cinnabarinus L-VGCC (Tetranychus cinnabarinus); test: pull-down; remark: listed apart in the source
[7] = target: L-type voltage-gated Ca2+ channel (TcL-VGCC) (Tetranychus cinnabarinus, UniProt A0A3Q9D0J7); test: voltage-clamp whole-cell current recording in Xenopus oocytes; type: cell-based

Tetranychus cinnabarinus calmodulin 1 (TcCaM1), recombinant, purified (natural protein)
Kd [1]: 430 nM
percent increase of CaM1 binding in the presence of scoparone (5.54 μM) [1]: 47.1%
Kd [2]: 112 nM
Kd [3]: 85 nM
Kd [4]: 931 nM
Kd, two-site model, first printed value [4]: 2250 nM
Kd, two-site model, second printed value [4]: 24 nM
stoichiometry N [4]: > 1
stoichiometry N [5]: > 1
Kd [6]: 230 nM

COc1cc2ccc(=O)oc2cc1OC [compound 1, scoparone]
EC50 [7]: 5540 nM
